Source: patent US12366576B2, “Compositions, assays, and methods for direct modulation of fatty acid metabolism” (Dana-Farber Cancer Institute, Inc., priority 2016, dated 2025)
Bridge positions count the residues as written; N and C are the ends. Square brackets hold non-standard residues; d marks the D form. Ends that are not written are not given here. * marks the point of attachment. Biotin = O=C1N[C@H]2[C@H](CS[C@H]2CCCCC(=O)*)N1; S5 = C=CCCC[C@](C)(N)C(=O)O

Assays:
endogenous MCL-1 = experiment: Biotinylated SAHB pulldown from MEF lysates, anti-MCL-1 Western analysis; type: binding, mouse; settings: wild-type MEF lysates, 15 nmol biotinylated SAHB
Chain of endogenous MCL-1 (P97287 152-308 limits assumed): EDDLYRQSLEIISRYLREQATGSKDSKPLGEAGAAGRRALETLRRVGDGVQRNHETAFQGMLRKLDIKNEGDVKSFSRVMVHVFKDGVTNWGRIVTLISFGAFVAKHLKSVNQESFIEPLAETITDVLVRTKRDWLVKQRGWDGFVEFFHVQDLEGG
Method: An exploratory proteomics analysis was conducted to identify proteins that interact with the MCL-1 BH3 domain helix. An extensive library of MCL-1 stapled BH3 peptides (FIG. 2) was generated to both identify novel protein interactors by mass spectrometry and then deploy the stapled peptide constructs as novel probes to dissect and pharmacologically modulate the identified protein interactors and associated signaling pathways. As an example, an N-terminally biotinylated stapled peptide designed based on the sequence of MCL-1's BH3 domain (Btn-MCL-1 SAHBD), or vehicle, was incubated with wild-type mouse embryonic fibroblast (MEF) lysates, followed by high stringency streptavidin capture. To validate the proteomics workflow and ensure that Btn-MCL-1 SAHBD could, in fact, engage protein interactors in a lysate, eluates were first run on a gel for anti-MCL-1 Western analysis. […] For mass spectrometry (MS) analysis, eluates were run on a reducing/denaturing gel followed by Coomassie staining (FIG. 4) and in-gel digestion was performed before injection on the instrument.
The binding determinants for the MCL-1 BH3/VLCAD interaction were investigated by generating a series of biotinylated MCL-1 SAHBD alanine point mutants (FIG. 18A) and performing streptavidin pull-downs from MEF lysates, followed by VLCAD and MCL-1 western analysis of the resulting eluates. […] Native alanines and residues not mutated are colored white.
Wild-type MEFs were trypsinized, washed once with cold PBS, and lysed on ice with NP-40 lysis buffer (50 mM Tris, pH 7.4, 150 mM NaCl, 0.5% (v/v) NP-40, complete protease inhibitor pellet (Roche)) using 1 ml of lysis buffer for every 10 million cells lysed. Cellular debris was pelleted at 14,000 g for 10 min at 4° C., and the supernatant was quantified using the BCA Protein Assay Kit (Thermo Fisher Scientific). 2 mg of lysate per pulldown were then exposed to 50 μL of pre-equilibrated High Capacity Streptavidin Agarose beads (Thermo Fisher Scientific). […] The beads were then pelleted and washed with NP-40 lysis buffer three times before eluting the protein sample from the beads by heating at 70° C. for 10 min in SDS loading buffer. Samples were then subjected to electrophoresis and either Western analysis or Coomassie stain (SimplyBlue Safe Stain, Thermo Fisher Scientific). […] Coomassie stained gels were then processed for proteomics analysis (see below). Biotinylated SAHB pulldowns of recombinant protein were performed as above incubating 5 nmol of SAHB with 10 pmol of rVLCAD in 500 μL total volume. Densitometry analyses were performed using ImageJ software.

VLCAD [1] = molecular target: T1, VLCAD (Homo sapiens, UniProt P49748); experiment: Biotinylated SAHB pulldown of recombinant protein; type: binding; settings: 5 nmol SAHB with 10 pmol rVLCAD
T1 construct: 10x His (N); made in house; host or cells: E. coli BL21(DE3), pET19b
T1 sequence (P49748 40-655): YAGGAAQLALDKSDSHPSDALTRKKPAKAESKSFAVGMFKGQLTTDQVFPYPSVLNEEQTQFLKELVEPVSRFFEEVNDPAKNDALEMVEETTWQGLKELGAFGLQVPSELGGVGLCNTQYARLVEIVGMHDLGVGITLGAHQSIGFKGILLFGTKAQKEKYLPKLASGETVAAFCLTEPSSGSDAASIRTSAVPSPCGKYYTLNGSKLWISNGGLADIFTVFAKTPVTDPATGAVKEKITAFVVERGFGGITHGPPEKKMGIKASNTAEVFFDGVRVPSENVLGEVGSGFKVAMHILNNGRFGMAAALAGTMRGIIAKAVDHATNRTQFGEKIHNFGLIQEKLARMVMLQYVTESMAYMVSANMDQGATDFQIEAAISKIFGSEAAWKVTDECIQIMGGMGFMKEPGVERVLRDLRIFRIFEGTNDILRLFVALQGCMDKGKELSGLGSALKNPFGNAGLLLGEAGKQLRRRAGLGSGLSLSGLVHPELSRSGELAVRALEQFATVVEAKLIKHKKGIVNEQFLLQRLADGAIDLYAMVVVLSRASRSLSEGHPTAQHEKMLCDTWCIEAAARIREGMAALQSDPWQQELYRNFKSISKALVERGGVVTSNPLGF
From the text: To validate the MS result, the pulldowns were repeated and eluates run on a gel for anti-VLCAD Western blot analysis. […] All peptides faithfully recapitulated native BH3-binding propensities for endogenous MCL-1 protein (FIG. 8). The eluates were then probed for the other members of the acyl-CoA dehydrogenase family that manifest shorter fatty acid substrate specificities. MCL-1 SAHBD was able to pull down VLCAD, but not MCAD or SCAD (FIG. 9). Because the traditional MCL-1 staple location differs from that of the BIM, BID, and BAD SAHBs, it was important to confirm that the observed VLCAD binding specificity was due to BH3 sequence selectivity, not staple position. A BIM SAHB with the traditional MCL-1 staple (BIM SAHBF), and a MCL-1 stapled peptide with the traditional BIM staple (MCL-1 SAHBA), were generated. […]
Wild-type MEFs were trypsinized, washed once with cold PBS, and lysed on ice with NP-40 lysis buffer (50 mM Tris, pH 7.4, 150 mM NaCl, 0.5% (v/v) NP-40, complete protease inhibitor pellet (Roche)) using 1 ml of lysis buffer for every 10 million cells lysed. Cellular debris was pelleted at 14,000 g for 10 min at 4° C., and the supernatant was quantified using the BCA Protein Assay Kit (Thermo Fisher Scientific). […]

VLCAD [2] = molecular target: T1, VLCAD; experiment: 19F NMR binding study with fluorinated SAHB; settings: fluorinated SAHB 25 μM, VLCAD 0-125 μM
Method: (§1) To measure the direct binding interaction, ^19F NMR binding studies were conducted using fluorinated analogs of MCL-1 SAHBD. […] Both SAHBs, however, bind MCL-1ΔNΔC, as illustrated by a chemical shift of the peptide NMR peak in both cases (FIG. 15). […] To perform these experiments, N-terminal Btn-PEG analogs of the peptides were immobilized onto streptavidin probes that were then placed into protein solutions at a variety of concentrations to measure ligand-target association.
VLCAD. Mature human VLCAD lacking its cleavable leader sequence (aa 40-655) (NP_000009.1) was subcloned into the pET19b vector (Novagen) using NdeI and XhoI restriction sites. Correct insertion was confirmed by DNA sequencing. […]
(§2) To determine binding of SAHBs to VLCAD, fluorinated SAHB (25 μM) and VLCAD (0-125 μM) were mixed together in VLCAD FPLC buffer including 10% D2O to a final volume of 500 μL. […] The extent to which VLCAD bound the peptide was determined by measuring the peak width at half height (ν1/2) of the peptide ^19F signal. […] MCL-1ΔNΔC binding to SAHBs causes a change in the ^19F chemical shift of the peptide resulting in two peptide signals (instead of peak broadening), so extent of binding was quantified by measuring the peak height of “unbound” peptide relative to the bound peptide signal.

MCL-1ΔNΔC [3] = molecular target: T2, MCL-1ΔNΔC (Homo sapiens, UniProt Q07820); experiment: Biolayer interferometry; type: binding; settings: Biotin-PEG peptide immobilized on streptavidin sensors
T2 construct: The MCL-1ΔNΔC construct was grown and expressed in E. coli as previously described; made in house; host or cells: E. coli BL21(DE3)
T2 sequence (Q07820 172-320 limits assumed, stated change not applied): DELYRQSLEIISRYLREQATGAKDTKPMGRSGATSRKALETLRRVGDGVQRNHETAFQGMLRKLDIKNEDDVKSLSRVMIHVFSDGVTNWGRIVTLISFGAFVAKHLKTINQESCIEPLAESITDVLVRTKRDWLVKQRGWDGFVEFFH

MCL-1ΔNΔC [4] = molecular target: T2, MCL-1ΔNΔC; experiment: 19F NMR binding study with fluorinated SAHB; settings: fluorinated SAHB 25 μM, MCL-1ΔNΔC 0-45 μM
Method: as §1
MCL-1ΔNΔC. The MCL-1ΔNΔC construct was grown and expressed in E. coli as previously described (see, e.g., Stewart, Nat Chem Biol., 6(6):595-601 (2010)). Transformed BL21(DE3) E. coli were grown at 37° C. to an OD of 0.8, after which they were induced with 0.5 mM IPTG. […]
as §2

VLCAD [5] = molecular target: T1, VLCAD; experiment: Biolayer interferometry; type: binding; settings: Biotin-PEG peptide immobilized on streptavidin sensors
Method: as §1
VLCAD. Mature human VLCAD lacking its cleavable leader sequence (aa 40-655) (NP_000009.1) was subcloned into the pET19b vector (Novagen) using NdeI and XhoI restriction sites. Correct insertion was confirmed by DNA sequencing. The 10× His-tagged VLCAD construct was expressed in BL21(DE3) E. coli, and once cells reached an OD of 0.8 after growing at 37° C., they were induced with 0.5 mM […] (IPTG) (Gold Biotechnology I2481C) at 37° C. for 4 hours. Bacterial pellets were resuspended in lysis buffer (500 mM NaCl, 50 mM HEPES, 5% glycerol, pH 7.5, complete protease inhibitor tablet) and lysed by microfluidization (M-110L; Microfluidics). […]
BLI binding measurements were performed using an Octet Red384 System (ForteBio). […] Binding parameters were calculated using the accompanying Octet Software version 9 (ForteBio).

pull down of recombinant VLCAD (VLCAD [1]) | Substance | pull down of endogenous MCL-1 from cellular lysates (endogenous MCL-1) | 19F NMR peptide peak broadening on VLCAD titration (VLCAD [2]) | biolayer interferometry association with MCL-1 (MCL-1ΔNΔC [3]) | 19F NMR binding to MCL-1ΔNΔC (chemical shift of the peptide peak) (MCL-1ΔNΔC [4]) | biolayer interferometry association with VLCAD (VLCAD [5])
pulled down recombinant VLCAD | Btn-MCL-1 SAHBD: N-terminally biotinylated stapled peptide designed based on the sequence of MCL-1's BH3 domain (Biotin-RKALETLRRVGDGV[S5]RNH[S5]TAF; staple 15-19) | readily identified in the eluates |  |  |  | 
 | MCL-1 SAHBB: MCL-1 SAHB containing a different staple position (RKAL[S5]TLR[S5]VGDGVQRNHETAF; staple 5-9) |  | little to no peak broadening | bind to MCL-1 | binds directly | no detectable binding interaction
